Consider two molecules from patent US20090117124A1 (Pfizer, published 2009).

Experiment [1] concerns the target T1, free IgE in human serum (healthy volunteers, in-house donors) (human, UniProt P01854-1 1-428).
T1 construct: Kept apart from the bought myeloma IgE because it is native serum IgE of single donors; also called serum IgE
The experiment can be described thus: serum free IgE depletion ELISA; DIN 0451 experiment 2. The procedure:
(§1) The next day ELISA plates were washed 1× with 300 μL/well wash buffer (0.05% Tween-20, Sigma, Cat. No. P7949/TBS) then blocked with 150 μL/well 1% BSA (Sigma, Cat. No. A7030) in TBS for 1 hour at room temperature.

The target in experiment [2] is T2, cynomolgus monkey IgE (in cynomolgus serum, Harlan Sera-Lab Ltd) (cynomolgus monkey).
T2 construct: Serum was the source of IgE; eight serum samples; also called cynomolgus IgE; Cyno 1 to Cyno 8 serum samples
The experiment in a line: capture ELISA, Test 2, Cyno 2. Here is the method:
(§2) Wells were washed once with 150 μL/well wash buffer (0.05% Tween-20, Sigma, Cat. No. P7949/TBS) then blocked with 150 μL/well 1% BSA (Sigma, Cat. No. A7030) in TBS for 2 hours at room temperature. Wells were washed twice with 150 μL wash buffer. 50 μL human (in-house donors) or cynomolgus serum (Harlan Sera-Lab Ltd, Loughborough) was added from neat to at least 1:16 dilution in 1% BSA/0.05% Tween-20/TBS diluent buffer. […] Wells were incubated for 2 hours at 25° C. before washing (3×150 μL wash buffer). […] Wells were incubated for 1 hour at 25° C. then washed (3×150 μL wash buffer). Streptavidin-HRP (Amersham Bioscience, Cat. No. RPN 1231) diluted 1:1000 in diluent buffer was added to all wells and incubated for 45 minutes at room temperature. Wells were washed (3×150 […] wash buffer). 50 μL OPD (Dako, Cat. No. S2045) was added to all wells and the color allowed to develop for 10 minutes before stopping the reaction with 50 μl 0.6M H₂SO₄ and the absorbance measured at 490 nm.

The target in experiment [3] is T1, free IgE in human serum (healthy …). The experiment in a line: serum free IgE depletion ELISA; DIN 0461. The procedure:
as §1
(In general: In an ELISA, binding on a coated surface is turned into a signal by an enzyme label.)

The target of experiment [4] is T2, cynomolgus monkey IgE (in cynomolgus …). The experiment in a line: capture ELISA, Test 2, Cyno 1. The procedure: as §2
For experiment [5] the target is unchanged. The experiment in a line: capture ELISA, Test 1, Cyno 4. Here is the method: as §2
Experiment [6] concerns the target T1, free IgE in human serum (healthy …). The experiment in a line: serum free IgE depletion ELISA; DIN 0011 experiment 1. The procedure:
as §1

The target of experiment [7] is T2, cynomolgus monkey IgE (in cynomolgus …). The experiment in a line: capture ELISA, Test 1, Cyno 6. The procedure:
as §2

Experiment [8] shares this target. The experiment can be described thus: capture ELISA, Test 1, Cyno 5. The procedure:
as §2

The target in experiment [9] is T3, human IgG3 (Biodesign, Cat. No. A50186H) (human).
T3 construct: Bought immunoglobulin coated on the plate
The experiment can be described thus: ELISA on coated immunoglobulin. The procedure: (§3) Wells were washed 3× with 150 μL wash buffer (0.05% Tween-20 (Sigma, Cat. No. P7949)/PBS) then blocked with 150 μL/well blocking buffer (2.5% BSA (Sigma, Cat. No. A7030)/PBS) for 2 hours at room temperature. Wells were washed 3× with 150 μL wash buffer/well. […] Antibodies were diluted in diluent buffer (PBS/1% BSA/0.05% Tween-20) and this was added to blank control wells (duplicate wells for each secondary antibody used). Antibodies were incubated for 2 hours at room temperature. Wells were washed 3× with 150 μL wash buffer/well. Binding of control antibodies to immunoglobulin was detected with anti-mouse IgG-HRP conjugate (Sigma, Cat. No. A4416) diluted 1:8000 in diluent buffer. 50 μL/well was added to control antibody and blank wells. Wells were incubated for 1 hour at room temperature, then washed 3× with 150 μL wash buffer/well. 50 μl OPD (Dako, Cat. No. […] Wells were incubated for 1 hour at room temperature then washed 3× with 150 μL wash buffer/well. Streptavidin-HRP (Amersham Bioscience, Cat. No. RPN 1231) diluted 1:2000 in diluent buffer was added to all wells and incubated for 45 minutes at room temperature. Wells were washed (3×150 μL wash buffer).

In experiment [10] the target is T4, human IgA (Sigma, Cat. No. I2636) (human).
T4 chain: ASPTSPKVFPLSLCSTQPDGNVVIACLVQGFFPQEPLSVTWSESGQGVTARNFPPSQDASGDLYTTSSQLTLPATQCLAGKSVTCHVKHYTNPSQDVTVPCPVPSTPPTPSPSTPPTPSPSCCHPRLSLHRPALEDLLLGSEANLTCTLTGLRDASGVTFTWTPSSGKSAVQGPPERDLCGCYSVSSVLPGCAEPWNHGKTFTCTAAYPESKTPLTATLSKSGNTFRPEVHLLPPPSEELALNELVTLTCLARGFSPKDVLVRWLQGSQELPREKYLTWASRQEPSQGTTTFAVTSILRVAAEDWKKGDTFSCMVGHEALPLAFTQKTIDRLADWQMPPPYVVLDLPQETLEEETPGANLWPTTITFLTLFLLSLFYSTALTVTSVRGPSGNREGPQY
The experiment in a line: ELISA on coated immunoglobulin. The procedure: as §3

Experiment [11] concerns the target T5, human IgG1 (Biodesign, Cat. No. A50183H) (human).
T5 construct: Bought immunoglobulin coated on the plate
The experiment can be described thus: ELISA on coated immunoglobulin. Here is the method:
as §3

Experiment [12] has as its target T6, human IgE (Human myeloma, azide free, Serotec, Cat. No. PHP008X2) (human, UniProt P01854 1-546).
T6 construct: mature; Bought full length human myeloma IgE; in the BIAcore kinetics Serotec PHP008X2 or Europa Bioproducts CP1035K was used; also called full length human IgE; human immunoglobulin E
The experiment can be described thus: ELISA on coated immunoglobulin. The procedure: as §3

Experiment [13] addresses T2, cynomolgus monkey IgE (in cynomolgus …). The experiment can be described thus: capture ELISA, Test 1, Cyno 3. The procedure: as §2
Experiment [14] addresses T1, free IgE in human serum (healthy …). The experiment can be described thus: serum free IgE depletion ELISA; DIN 0321 experiment 1. The procedure:
as §1

Experiment [15] concerns the target T2, cynomolgus monkey IgE (in cynomolgus …). The experiment can be described thus: capture ELISA, Test 2, Cyno 5. Here is the method:
as §2

Experiment [16] concerns the target T1, free IgE in human serum (healthy …). The experiment can be described thus: serum free IgE depletion ELISA; DIN 0632 experiment 1. Here is the method:
as §1

T1 sequence (P01854 other isoform, or with tags, fused parts or gaps): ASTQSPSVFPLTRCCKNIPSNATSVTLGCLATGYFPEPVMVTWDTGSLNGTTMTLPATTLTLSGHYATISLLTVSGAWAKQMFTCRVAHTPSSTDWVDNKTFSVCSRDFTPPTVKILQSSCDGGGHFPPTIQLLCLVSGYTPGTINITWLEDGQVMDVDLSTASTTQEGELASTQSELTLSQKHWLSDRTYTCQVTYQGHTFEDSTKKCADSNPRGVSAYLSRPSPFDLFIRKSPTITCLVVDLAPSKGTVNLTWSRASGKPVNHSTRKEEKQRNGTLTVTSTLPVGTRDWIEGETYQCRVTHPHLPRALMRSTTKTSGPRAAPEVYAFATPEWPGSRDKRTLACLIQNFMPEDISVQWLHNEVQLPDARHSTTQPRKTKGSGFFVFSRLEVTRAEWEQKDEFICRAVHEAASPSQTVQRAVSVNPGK
T6 sequence (P01854 whole entry): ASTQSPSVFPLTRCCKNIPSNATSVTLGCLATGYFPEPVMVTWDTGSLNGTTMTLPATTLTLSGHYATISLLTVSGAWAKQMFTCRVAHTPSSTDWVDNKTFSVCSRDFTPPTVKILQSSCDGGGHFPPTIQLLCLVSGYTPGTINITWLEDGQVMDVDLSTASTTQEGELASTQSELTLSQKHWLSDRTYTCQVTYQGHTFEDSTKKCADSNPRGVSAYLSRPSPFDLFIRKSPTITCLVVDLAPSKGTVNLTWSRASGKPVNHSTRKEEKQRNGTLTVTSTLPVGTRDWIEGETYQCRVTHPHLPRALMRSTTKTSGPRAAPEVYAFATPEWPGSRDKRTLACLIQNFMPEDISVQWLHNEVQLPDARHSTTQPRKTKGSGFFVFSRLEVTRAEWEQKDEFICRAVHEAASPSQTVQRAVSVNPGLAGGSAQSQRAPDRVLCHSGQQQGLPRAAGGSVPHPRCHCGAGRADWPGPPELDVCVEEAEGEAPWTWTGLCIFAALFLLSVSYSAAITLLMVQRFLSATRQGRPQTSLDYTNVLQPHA

B1: 5.948.1 (recombinant) (antibody, human IgG2, kappa, V domains shown)
VH: QVQLVQSGAEVKKPGASVKVSCKASGYTFTSYDINWVRQATGQGLEWMGWMDPNSGNTGYAQKFQGRVTMTRNTSISTAYMELSSLRSEDTAVYYCARGHYDSDGYYSFSGMDVWGQGTTVTVSS
VL: not shown
notes: Human IgG2 kappa; leader omitted; Two batches were tested in some assays; also called recombinant 5.948.1; 5.948.1 - Batch 1 (762.8 µg/mL)
For the molecule B1, the “IC25 ng/mL” value in experiment [1] came to 39.7 µg/mL; in experiment [3], 1.47 µg/mL; in [6], 3.3 µg/mL; in [14], 1.34 µg/mL; in experiment [16], 8.91 µg/mL. Besides, the IgE concentration detected in experiment [2] came to 328 ng/mL; in [4], 289 ng/mL; in [5] it was 39 ng/mL; in experiment [7] it was 53 ng/mL; in [8], 837 ng/mL; in [13], 457 ng/mL. In experiment [15], this molecule gave an IgE concentration detected of 630 ng/mL. For the same molecule, the A290 nm is 0.04 A290 nm in experiment [9], 0.04 A290 nm in [10], 0.07 A290 nm in [11] and 2.57 A290 nm in experiment [12].

B2: 5.948.1 Hc-H100Y (antibody, human IgG2, kappa, V domains shown)
VH: QVQLVQSGAEVKKPGASVKVSCKASGYTFTSYDINWVRQATGQGLEWMGWMDPNSGNTGYAQKFQGRVTMTRNTSISTAYMELSSLRSEDTAVYYCARGYYDSDGYYSFSGMDVWGQGTTVTVSS
VL: not shown
notes: Human IgG2 kappa; leader omitted; also called 5.948.1 (H100Y); 5.948.1 H100Y
Regarding B2, the “IC25 ng/mL” value in experiment [1] is 10.5 µg/mL; in experiment [3], 0.34 µg/mL. In addition, the IgE concentration detected in [2] was found to be 199 ng/mL; in [4] it was 170 ng/mL; in [15], 420 ng/mL. The A290 nm worked out at 0.06 A290 nm in experiment [9], 0.05 A290 nm in [10], 0.06 A290 nm in [11] and 1.05 A290 nm in [12].
